In US20190177705A1 (UNIVERSITEIT GENT, published 2019):

B1: unfused gp130 receptor fragment (encoded by pMG1) (other, human, UniProt P40189 760-918, looked up)
chain: STVVHSGYRHQVPSVQVFSRSESTQPLLDSEERPEDLQLVDHVDGGDGILPRQQYFKQNCSQHESSPDISHFERSKQVSSVNEEDFVRLKQQISDHISQSCGSGQMKMFQEVSAADAFGPGTEGQVERFETVGMEAATDEGMPKSYLPQTVRQGGYMPQ
notes: Background control, expressed in HEK293-T cells; also called unfused gp130 fragment

Assays:
[1] = target: Flag-gp130-RTp51 fusion protein (encoded by pMG2-RTp51) (human; HIV1) (UniProt P40189); test: cell-based or functional assay
[2] = target: T1, HA-Tyk2(C)-p53(N) fusion protein (encoded by pMet7-HA-Tyk2(C)-p53(N)) (human, UniProt P04637 2-72); test: kinase-substrate sensor assay, rPAPI-luciferase reporter in HEK293-T cells
T1 construct: range 2-72; Expressed in HEK293-T cells; not shown: HA tag

Molecule | imidazole-dependent induction of the luciferase signal [1] | binding result [2]
HA-Tyk2(R1027A)-RTp66 fusion protein (encoded by pMet7-HA-Tyk2(R1027A)-RTp66) | 36 fold | –
B1 | – | no binding
